Results on nine molecules are retold here after patent publication US20240352445A1 (ABWIZ BIO, published 2024).

Positions count from the first letter of the chain named.

Test [1] has as its target T1, SARS-CoV-2 spike protein trimer, Omicron (B.1.1.529) variant (SARS-CoV-2, UniProt P0DTC2 16-1213).
For test [2], the target named is T2, SARS-CoV-2 spike protein trimer, Beta (B.1.351) variant (SARS-CoV-2, UniProt P0DTC2 16-1213). Description: BLI (Octet), biotinylated spike trimer on streptavidin sensor, IgG titrated. (Biolayer interferometry detects binding as a change in optical thickness at a sensor tip.)
For test [3], the target named is SARS-CoV-2 spike protein trimer, Alpha (B.1.1.7) variant (SARS-CoV-2, UniProt P0DTC2 16-1213). Put plainly: ELISA, purified IgG. A general note: An ELISA detects its analyte on a solid surface through an enzyme-linked reagent.
Test [4] has as its target T2, SARS-CoV-2 spike protein trimer, Beta …. Description: ELISA, purified IgG.
Test [5] has as its target SARS-CoV-2 spike protein trimer, Gamma (P.1) variant (SARS-CoV-2, UniProt P0DTC2 16-1213). Description: ELISA, purified IgG.
Test [6] has as its target SARS-CoV-2 spike protein trimer, Kappa (B.1.617.1) variant (SARS-CoV-2, UniProt P0DTC2 16-1213). Put plainly: ELISA, purified IgG.
The target of test [7] is SARS-CoV-2 spike protein trimer, Epsilon (B.1.429) variant (SARS-CoV-2, UniProt P0DTC2 16-1213). Description: ELISA, purified IgG.
The target in test [8] is SARS-CoV-2 spike protein trimer, Delta (B.1.617.2) variant (SARS-CoV-2, UniProt P0DTC2 16-1213). Put plainly: BLI (Octet), biotinylated spike trimer on streptavidin sensor, IgG titrated.
Test [9] has as its target T1, SARS-CoV-2 spike protein trimer, …. Described as above.

B1: LxC1-G10 (antibody, V domains shown)
VH: EVQLVESGGGLVQPGGSLRLSCTVSGFSLSTYAMSWVRQAPGKGLEWIGVIASNADTYYASWAKGRFTISRDNSKNTLYLQMNSLRAEDTAVYYCARHPGSAGYGYAVYYAMDPWGQGTLVTVSS
VL: DIQMTQSPSSLSASVGDRVTITCQASERVFYGIDWYQQKPGKAPKLLIYGASALWHGVPSRFSGSGSGTDYTLTISSLQPEDFATYYCQQGYMVPIGFGGGTKVEIK
notes: also called light chain engineered candidate
As usually defined, the Kd is the concentration at which binding is half-saturated. As for B1, in [1], the Kd was 51 pM and the “fold improvement in IC50 compared to hN2Y” value was over 13 fold. In addition, the “fold increased affinity compared to hN2Y” value in test [2] is over 100 fold.

B2: SEQ ID NO 12 (antibody, V domains shown)
VH: B1 VH
VL: DIQMTQSPSSLSASVGDRVTITCQASQPIHYAINWYQQKPGKAPKLLIYGTSHRKMGVPSRFSGSGSGTDYTLTISSLQPEDFATYYCQQGYIVALKFGGGTKVEIK
notes: also called selected clone from LxC libraries; LxC clone
In the case of B2, the binding result in test [3], in test [4], in [5], in [6] and in test [7] was “binds” throughout.

B3: humanized antibody hN2Y (antibody, V domains shown)
VH: B1 VH
VL: DIQMTQSPSSLSASVGDRVTITCKASEDIRYGLNWYQQKPGKAPKLLIYGANTLEAGVPSRFSGSGSGTDYTLTISSLQPEDFATYYCQQGYSTPLTFGGGTKVEIK
Broadly, the IC50 is the concentration needed to halve the response being measured. Lower therefore signals inhibition by little substance. With B3, the IC50 in test [1] was 0.26 µg/mL.

B4: G10xA1 (antibody, V domains shown)
VH: EVQLVESGGGLVQPGESLRLSCKASGFTFPNQAMTWVRQAPGKGLEWIGVIASNADTYYASWAKGRFTISRDNSKNTLYLQMNSPRAEDTAVYYCARHPGSAGYGYALYYAMDPWGQGTLVTVSS
VL: B1 VL
Turning to B4, the “fold improved affinity compared to LxC1-G10” value was over 20 fold in test [8] and 1.2 fold in test [9].

B5: SEQ ID NO 15 (antibody, V domains shown)
VH: B1 VH
VL: B2 VL with P28K, H53Y, R54L, K55G, M56G, Y71F, A95P, L96N, K97S
notes: As m4
Take B5: the binding result in test [3], in test [4], in test [5], in test [6] and in test [7] was “binds” throughout.

B6: SEQ ID NO 16 (antibody, V domains shown)
VH: B1 VH
VL: B2 VL with P28D, I29V, H30K, H53S, K55G, M56E, I93V, A95S, L96I, K97F
notes: As m4
As to B6, the binding result in test [3], in test [4], in test [5], in [6] and in test [7] was “binds” throughout.

B7: SEQ ID NO 18 (antibody, V domains shown)
VH: B1 VH
VL: B3 VL with A51G, N52S, T53Y, E55R, A56W, S93R, T94V, L96I, T97R
notes: As m4; also called selected clone from LxC libraries; LxC clone
For B7, the binding result in [3], in test [4], in test [5], in [6] and in test [7] was “binds” in each case.

B8: G10xA5 (antibody, V domains shown)
VH: B1 VH with F27Y, S28T, S30F, T31P, Y32P, A33P, M34V, S35T, A107Q, V108Y
VL: B1 VL
Take B8: the “fold improved affinity compared to LxC1-G10” value was over 20 fold in test [8] and 15 fold in test [9].

B9: SEQ ID NO 17 (antibody, V domains shown)
VH: B1 VH
VL: DIQMTQSPSSLSASVGDRVTITCQASQPIYYGINWYQQKPGKAPKLLIYGHTYRAWGVPSRFSGSGSGTDFTLTISSLQPEDFATYYCQQGYRVGLGFGGGTKVEIK
notes: As m4
For B9, the binding result in test [3], in test [4], in [5], in test [6] and in test [7] was “binds” each time.
